This assay deals with GST-LOV2GIVe (L) (Avena sativa | , UniProt O49003).

B1: His-Gαi3 (rat) (natural protein)
chain: MGCTLSAEDKAAVERSKMIDRNLREDGEKAAKEVKLLLLGAGESGKSTIVKQMKIIHEDGYSEDECKQYKVVVYSNTIQSIIAIIRAMGRLKIDFGEAARADDARQLFVLAGSAEEGVMTSELAGVIKRLWRDGGVQACFSRSREYQLNDSASYYLNDLDRISQTNYIPTQQDVLRTRVKTTGIVETHFTFKELYFKMFDVGGQRSERKKWIHCFEGVTAIIFCVALSDYDLVLAEDEEMNRMHESMKLFDSICNNKWFTDTSIILFLNKKDLFEEKIKRSPLTICYPEYTGSNTYEEAAAYIQCQFEDLNRRKDTKEVYTHFTCATDTKNVQFVFDAVTDVIIKNNLKECGLY
In the case of B1, the Kd was 270 nM.

Source of the values: publication PMC7515630 (2020).
